Assays:
[1] = biological target: Ago protein from Maribacter polysiphoniae (Maribacter polysiphoniae); assay: cryo-EM structure; TIR-APAZ/Ago with gRNA and target ssDNA (1:1.5:2), tetramer of heterodimers, 2.95 Å
[2] = biological target: TIR-APAZ protein from Maribacter polysiphoniae (Maribacter polysiphoniae); assay: as above
[3] = biological target: TIR-APAZ/Ago complex from Maribacter polysiphoniae (Maribacter polysiphoniae); assay: as above
[4] = biological target: SIR2-APAZ;short prokaryotic Ago (SIR2-APAZ system) (Geobacter sulfurreducens;Geobacter …, UniProt Q74DF6;Q74DF5 1-587;1-473, |); assay: cryo-EM; metal ion at 5'-phosphate; 2 mM MgCl2; heterodimer; 3.0 A; cryo-EM: complex:gRNA:target DNA 1:1.5:2; TIR system 25 mM Tris-HCl pH 7.5, 150 mM NaCl, 2 mM DTT, 2 mM MgCl2; SIR2 system 25 mM HEPES pH 7.9, 150 mM NaCl, 2 mM DTT, 2 mM MgCl2 (gel-filtration buffers); native PAGE conditions not in material; details: protein: recombinant;recombinant; tags: His-SUMO (N-terminal); copies: 1;1; about 25 bp visible
Sequence of SIR2-APAZ;short prokaryotic Ago (SIR2-APAZ system) (chain, as listed by the source |, chain 1 of 2): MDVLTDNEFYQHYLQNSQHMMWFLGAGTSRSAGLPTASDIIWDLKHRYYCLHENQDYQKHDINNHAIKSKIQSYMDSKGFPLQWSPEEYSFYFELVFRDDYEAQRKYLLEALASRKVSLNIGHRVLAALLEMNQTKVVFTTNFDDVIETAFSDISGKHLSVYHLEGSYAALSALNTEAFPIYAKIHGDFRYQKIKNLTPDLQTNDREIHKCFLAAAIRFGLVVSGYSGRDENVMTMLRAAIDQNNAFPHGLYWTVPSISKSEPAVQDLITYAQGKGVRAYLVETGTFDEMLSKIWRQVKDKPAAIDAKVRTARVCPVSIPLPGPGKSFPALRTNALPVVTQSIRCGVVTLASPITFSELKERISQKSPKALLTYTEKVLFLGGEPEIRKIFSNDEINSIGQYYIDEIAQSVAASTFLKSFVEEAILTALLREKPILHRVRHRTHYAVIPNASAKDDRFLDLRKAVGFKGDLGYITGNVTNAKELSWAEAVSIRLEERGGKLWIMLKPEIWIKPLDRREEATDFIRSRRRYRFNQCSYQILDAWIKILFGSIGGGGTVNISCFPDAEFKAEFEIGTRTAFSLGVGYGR
Sequence of SIR2-APAZ;short prokaryotic Ago (SIR2-APAZ system) (chain, as listed by the source |, chain 2 of 2): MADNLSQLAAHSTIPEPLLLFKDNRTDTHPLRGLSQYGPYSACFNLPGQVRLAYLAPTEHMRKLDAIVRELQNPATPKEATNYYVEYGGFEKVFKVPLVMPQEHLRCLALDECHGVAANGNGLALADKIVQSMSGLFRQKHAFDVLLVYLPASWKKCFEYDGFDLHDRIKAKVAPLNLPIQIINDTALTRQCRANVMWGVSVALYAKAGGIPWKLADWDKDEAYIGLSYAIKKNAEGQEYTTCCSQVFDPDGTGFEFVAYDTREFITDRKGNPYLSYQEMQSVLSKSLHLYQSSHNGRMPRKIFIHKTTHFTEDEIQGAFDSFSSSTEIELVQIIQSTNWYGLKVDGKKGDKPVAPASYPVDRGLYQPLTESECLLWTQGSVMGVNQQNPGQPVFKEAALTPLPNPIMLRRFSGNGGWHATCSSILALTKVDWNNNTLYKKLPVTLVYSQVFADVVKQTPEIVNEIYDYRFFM

Q: “Ago protein from Maribacter polysiphoniae (natural protein)” was tested. Which stoichiometry N [1] did it give?
A: 2

Q: Which stoichiometry N [2] does the source give for “TIR-APAZ protein from Maribacter polysiphoniae (natural protein)” here?
A: 4

Q: With “TIR-APAZ/Ago complex from Maribacter polysiphoniae” as the molecule, how does the stoichiometry N [3] read?
A: 4

B1: gRNA + target ssDNA (SIR2-APAZ/Ago) (DNA:RNA)
RNA: AUAAUGGUUUCUUAGACGUCGUUUUAGAGCUGUGUUGUUUCG
DNA: CGAAACAACACAGCTCTAAAACGACGTCTAAGAAACCATTAT
modifications: 5'-phosphate on gRNA
Q: Does B1 bind [4]?
A: binds

From publication PMC10474274, “Structural insights into mechanisms of Argonaute protein-associated NADase activation in bacterial immunity”
